Target: T1, human C1q (human, UniProt P02745 23-245; P02746 28-253; P02747 29-245)
T1 construct: Human C1q (Sigma) in the ELISA; hC1q coated at 100 nM in the RIA; also called hC1q
Test: RIA, 35S-labelled Fc on coated C1q
Excerpt: IgG1 Fc variants arising from round three outputs of Fcγ1 selections against human C1q using ribosome display, were screened for binding using the primary RIA as described in Jermutus et al. (2001, PNAS 98(1): 75-80). In brief, the Fc region from the plasmid for each variant (96 well format) was PCR amplified to produce a linear DNA template. This template was gel purified and reamplified attaching the T7 promoter sequence for T7 directed in vitro transcription and the resulting mRNA purified on G25 Sephadex columns. For each variant, in vitro translations in the presence of 35S-labelled methionine was performed at 37° C. for 40 mins. The translations were stopped with PBS with 0.05% Tween 20. The translation mixture was incubated on a plate coated with 100 nM hC1q for 2 hours at room temperature. Plates were washed three times in PBS with 0.05% Tween 20 and three times in PBS. The remaining radioactivity was eluted with 0.1M triethylamine and quantified by liquid scintillation counting.

T1 sequence (P02745 23-245 limits assumed, chain 1 of 3): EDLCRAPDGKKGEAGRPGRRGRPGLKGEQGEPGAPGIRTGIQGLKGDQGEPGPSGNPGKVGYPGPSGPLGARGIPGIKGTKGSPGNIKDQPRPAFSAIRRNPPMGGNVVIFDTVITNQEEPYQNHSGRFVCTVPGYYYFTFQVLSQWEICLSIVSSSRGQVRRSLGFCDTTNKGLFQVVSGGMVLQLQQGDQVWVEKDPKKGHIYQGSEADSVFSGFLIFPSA
T1 sequence (P02746 28-253 limits assumed, chain 2 of 3): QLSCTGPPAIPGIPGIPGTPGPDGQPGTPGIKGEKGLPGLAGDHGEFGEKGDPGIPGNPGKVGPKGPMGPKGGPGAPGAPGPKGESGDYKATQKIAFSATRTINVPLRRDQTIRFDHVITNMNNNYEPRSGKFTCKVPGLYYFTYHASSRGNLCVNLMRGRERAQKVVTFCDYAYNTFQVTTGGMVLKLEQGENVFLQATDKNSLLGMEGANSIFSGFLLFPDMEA
T1 sequence (P02747 29-245 limits assumed, chain 3 of 3): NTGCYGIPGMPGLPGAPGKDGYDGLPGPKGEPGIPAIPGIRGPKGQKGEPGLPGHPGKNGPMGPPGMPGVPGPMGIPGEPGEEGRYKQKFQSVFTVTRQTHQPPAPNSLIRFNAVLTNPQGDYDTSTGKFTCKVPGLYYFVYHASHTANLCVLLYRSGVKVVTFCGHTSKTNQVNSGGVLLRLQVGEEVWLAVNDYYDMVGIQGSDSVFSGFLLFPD

- RIA for C1q: 1.5 fold over wild-type
B1: Fc polypeptide variant 2F01 (Fcγ1, in vitro translated) (other)
chain: AHTCPPCPAPELLGGPPVFLFPPKPKDTLMIPRTPEVTCVVVDVNHEDPEVKFNWYVDGVEVRNAKTKPREEQYNSTYRVVSVLTVLHQDWLSGKEYKCKVSNKALPAPIEKTISKAKGQPREPQVYTLPPSREEMTKNQVSLTCLVKGLYPSDITVEWESNGQPENDCKTTPPVLDSDGSSFLYSKLTVDKSRWQQGNVFSCSVMHKAPHNHYTQKSLSLSPGE
notes: Fc region only, in vitro translated with 35S-methionine for RIA

From patent publication US20100184959A1 (AstraZeneca / MedImmune, published 2010)
